# Assay results from patent US9079867B2, “Polyazamacrocyclic compound, and a production method and a biomedical use therefor” (KYUNGPOOK NATIONAL UNIVERSITY INDUSTRY-ACADEMIC COOPERATION …, priority 2010, dated 2015).
# What was measured:
# [1] = in vivo; parameters: species or system female nude mice; conditions: female, nude, mouse, iv, 10 uCi, total radioactivity
# Protocol: Compound ^64Cu-TE2A-c(RGDyK) (38) (10 μCi) in PBS (120 μl) was injected to the tails of female nude mice to which U87MG tumor had been transplanted. Two groups were examined at two time points [n=4 per group at 1 hr and 4 hr post injection (pi)]. The subject animals were sacrificed, and the relevant tissues and organs were removed and weighed. A dosimetric procedure was carried out by using a gamma-counter. The calculations were performed by comparing with a reference value of which the percentage of injected amount per gram was known.
# [2] = Cyclic voltammetry (electrochemical experiment); format: physicochemical; conditions: irreversible (irrev); 2 mM, 100 mV/s, 0.1 M sodium acetate pH 7.0, glassy carbon electrode
# Protocol: Cyclic voltammetry was carried out by using biological model SP-150 having a 3-electrode structure. The working electrode was made of glassy carbon (diameter=3 mm), the reference electrode Ag/AgCl (saturated KCl), and the counter electrode Pt wire. A sample (2 mM) of compound (30) was operated at a scanning speed of 100 mV/s in a 0.1 M aqueous sodium acetate solution adjusted to pH 7.0 with glacial acetic acid. From the solution, oxygen was removed by bubbling Ar for 30 minutes. During the measurement, the system was maintained under Ar atmosphere.
structure (smiles),measurement,setting,value
"N=C(N)NCCC[C@@H]1NC(=O)[C@H](CCCCNC(=S)Nc2ccc(CCN3CCCN(CC(=O)O)CCNCCCN(CC(=O)O)CC3)cc2)NC(=O)[C@@H](Cc2ccc(O)cc2)NC(=O)[C@H](CC(=O)O)NC(=O)CNC1=O [^64Cu-TE2A-c(RGDyK), metal not drawn]",tissue uptake at 1 h,[1]; % ID/g Blood,0.55 ± 0.18 %ID/g
same,tissue uptake at 4 h,[1]; % ID/g Blood,0.43 ± 0.09 %ID/g
same,tissue uptake at 1 h,[1]; % ID/g Bone,0.66 ± 0.23 %ID/g
same,tissue uptake at 4 h,[1]; % ID/g Bone,0.41 ± 0.06 %ID/g
same,tissue uptake at 1 h,[1]; % ID/g Fat,1.28 ± 0.55 %ID/g
same,tissue uptake at 4 h,[1]; % ID/g Fat,1.15 ± 1.08 %ID/g
same,tissue uptake at 1 h,[1]; % ID/g Intestine,2.14 ± 0.53 %ID/g
same,tissue uptake at 4 h,[1]; % ID/g Intestine,2.17 ± 0.62 %ID/g
same,tissue uptake at 1 h,[1]; % ID/g Kidney,3.47 ± 0.61 %ID/g
same,tissue uptake at 4 h,[1]; % ID/g Kidney,2.71 ± 0.45 %ID/g
same,tissue uptake at 1 h,[1]; % ID/g Liver,5.45 ± 1.14 %ID/g
same,tissue uptake at 4 h,[1]; % ID/g Liver,4.45 ± 0.65 %ID/g
same,tissue uptake at 1 h,[1]; % ID/g Lung,1.46 ± 0.34 %ID/g
same,tissue uptake at 4 h,[1]; % ID/g Lung,1.14 ± 0.17 %ID/g
same,tissue uptake at 1 h,[1]; % ID/g Muscle,0.49 ± 0.3 %ID/g
same,tissue uptake at 4 h,[1]; % ID/g Muscle,0.24 ± 0.11 %ID/g
same,tissue uptake at 1 h,[1]; % ID/g Spleen,1.17 ± 0.46 %ID/g
same,tissue uptake at 4 h,[1]; % ID/g Spleen,1.04 ± 0.46 %ID/g
same,tissue uptake at 1 h,[1]; % ID/g Stomach,1.78 ± 0.55 %ID/g
same,tissue uptake at 4 h,[1]; % ID/g Stomach,1.03 ± 0.39 %ID/g
same,tissue uptake at 1 h,[1]; % ID/g Tumor 1,2.98 ± 0.39 %ID/g
same,tissue uptake at 4 h,[1]; % ID/g Tumor 1,3.01 ± 1 %ID/g
same,tissue uptake at 1 h,[1]; % ID/g Tumor 2,3.49 ± 1.67 %ID/g
same,tissue uptake at 4 h,[1]; % ID/g Tumor 2,3.32 ± 0.49 %ID/g
O=C([O-])CN1CCCNCCN(CC(=O)[O-])CCCNCC1.[Cu+2] [Cu-TE2A],Ered (V) for Ag/AgCl,[2],−1.05 (irrev) V
